Measurements taken from patent US20160264653A1 (published 2016).

B2: human ephrin-A4 ligand (EFNA4) expressed on the cell surface (ligand)
chain: LRHVVYWNSSNPRLLRGDAVVELGLNDYLDIVCPHYEGPGPPEGPETFALYMVDWPGYESCQAEGPRAYKRWVCSLPFGHVQFSEKIQRFTPFSLGFEFLPGETYYYISVPTPESSGQCLRLQVSVCCKERKSESAHPVGSPGES
notes: GPI-anchored; Cells used: HEK293T.hEFNA4 (retroviral overexpression), parental HEK293T (low level), Jurkat, Z138, K562, PC3, NTX tumor cells; also called hEFNA4; HEK293T.hEFNA4 cells

How the values were obtained:
[1] = molecular target: B2; test: cell-based or functional assay
mouse ephrin-A4-His = molecular target: T1, mouse ephrin-A4-His (mouse, UniProt O08542 26-175, limits assumed); test: ELISA; titrated ephrin-A4-His coated, 0.5 ug/ml hSC4.15 (FIG. 13C)
T1 construct: also called murine EFNA4-His; not shown: His tag
T1 sequence (looked up): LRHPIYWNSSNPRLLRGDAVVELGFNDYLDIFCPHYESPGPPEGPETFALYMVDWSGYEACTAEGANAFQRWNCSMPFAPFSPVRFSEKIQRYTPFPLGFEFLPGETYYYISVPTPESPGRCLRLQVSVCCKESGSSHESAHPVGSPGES

human ephrin-A4-His = molecular target: T2, human ephrin-A4-His (human, UniProt P52798 26-170, limits assumed); test: as above
T2 construct: also called hEFNA4-ECD-His; EFNA4 His fusion protein; not shown: His tag
T2 sequence: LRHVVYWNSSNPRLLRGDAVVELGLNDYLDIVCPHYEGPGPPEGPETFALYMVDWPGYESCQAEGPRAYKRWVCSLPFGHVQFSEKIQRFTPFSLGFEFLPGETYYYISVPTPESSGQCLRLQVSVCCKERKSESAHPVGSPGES

[2] = molecular target: T3, Fc portion of human IgG alone (human, UniProt P01857-1 100-330 = IgG part, limits assumed); test: flow cytometry on Jurkat cells (known to express EFNA) (FIG. 12A)
T3 construct: domain: Fc; also called human IgG Fcgamma1 fragment

EphB4-Fc = molecular target: T4, EphB4-Fc (human, UniProt P54760 16-539, limits assumed); test: flow cytometry; EphB-Fc on HEK293T.hEFNA4 cells (FIG. 20B)
T4 construct: extracellular domain; not shown: human IgG1 Fc
T4 sequence (looked up): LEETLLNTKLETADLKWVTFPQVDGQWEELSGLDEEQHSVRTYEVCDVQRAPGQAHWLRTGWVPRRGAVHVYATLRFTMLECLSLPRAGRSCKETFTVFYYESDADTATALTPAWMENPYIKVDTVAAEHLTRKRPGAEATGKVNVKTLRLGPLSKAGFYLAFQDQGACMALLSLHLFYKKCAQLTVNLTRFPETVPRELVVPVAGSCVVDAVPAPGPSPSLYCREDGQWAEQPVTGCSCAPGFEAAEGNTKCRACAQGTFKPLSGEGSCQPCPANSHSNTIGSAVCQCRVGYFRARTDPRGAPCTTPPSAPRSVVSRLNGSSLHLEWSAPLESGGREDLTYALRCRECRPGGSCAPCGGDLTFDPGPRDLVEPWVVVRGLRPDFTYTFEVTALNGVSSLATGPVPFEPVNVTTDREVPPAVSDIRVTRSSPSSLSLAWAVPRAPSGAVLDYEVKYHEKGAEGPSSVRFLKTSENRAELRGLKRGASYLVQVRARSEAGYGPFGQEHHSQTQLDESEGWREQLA

EFNA4 antigen = molecular target: T5, EFNA4 antigen (human, UniProt P52798 26-170, limits assumed); test: SPR (Biacore); fixed antibody, antigen concentration series; 1:1 Langmuir model
T5 construct: also called ephrin-A4 antigen
T5 sequence: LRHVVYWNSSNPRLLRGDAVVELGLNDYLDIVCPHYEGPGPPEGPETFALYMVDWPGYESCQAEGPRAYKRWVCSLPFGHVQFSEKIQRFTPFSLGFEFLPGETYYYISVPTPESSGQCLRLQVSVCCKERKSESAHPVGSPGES
Method: Finally, the affinity of selected modulators was measured by surface plasmon resonance (Biacore System, GE Healthcare). Based on a standard antigen concentration series and using a 1:1 Langmuir binding model, the Kd of the antibody binding to antigen and the kinetic constants kₒₙ and koff were determined.

B1: hSC4.15 (antibody, V domains shown)
VH: EVQLVESGGGLVKPGGSLRLSCAASGFTFSTYGMSWVRQAPGKGLEWVATISSGGTYTYYPDSVKGRFKISRDNAKNSLYLQMNSLRAEDTAVYYCTRHDPNDGYYFLFAYWGQGTLVTVSS
VL: EIVLTQSPGTLSLSPGERATLSCKASQSVGNNVAWYQQKPGQAPRLLIYYASNRYTGIPDRFSGSGSGTDFTLTISRLEPEDFAVYYCQQHYSSPLTFGAGTKLEIK
notes: also called humanized SC4.15
EC50 (pM) of killing, saporin-Fab in vitro cytotoxicity assay, HEK293T.hEFNA4 cells [1]: 13.7 pM | EC50 (pM) of killing, saporin-Fab in vitro cytotoxicity assay, PC3 cells [1]: 5.4 pM | binding result (mouse ephrin-A4-His): binds | binding result (human ephrin-A4-His): binds

B2
binding result [2]: no binding | binding result (EphB4-Fc): no binding

B3: hSC4.47 (antibody, human IgG1, V domains shown)
VH: QVQLVQSGAEVKKPGASVKVSCKASGYTFTYFYMNWVRQAPGQGLEWVGQINPNNGGTAYAQKFQGRVTMTRDTSTSTVYMELSSLRSEDTAVYYCARWVGTHYFDYWGQGTTLTVSS
VL: EIVLTQSPATLSLSPGERATLSCRASQSVSSSSYTYIHWYQQKPGQAPRLLINFASNLESGIPARFSGSGSGTDFTLTISSLEPEDFAVYYCQHSWEIPPTFGGGTKLEIK
notes: also called humanized SC4.47
Kd (EFNA4 antigen): < 0.1 nM
